{"source": "paper PMC4849472", "about": "(Cell Discovery, 2016)", "settings_in_all_cases": "both partners purified", "key": {"Hsp90 [1]": {"molecular_target": "T1, Hsp90 (human, UniProt P07900 1-732)", "experiment": "native MS; p23 added to the client-transfer complex without immunophilin, with ATP; MS/MS (collision-induced dissociation) of the isolated 32+ charge state of (Hsp90)2(p23)2(GR)1"}, "Hsp90 [2]": {"molecular_target": "T1, Hsp90", "experiment": "native MS; as a8, then stoichiometric p23 added (300 μM ATP magnesium acetate, a further 15 min)"}, "Hsp90 [3]": {"molecular_target": "T1, Hsp90", "experiment": "native MS; (Hsp70)2, GR, Hop and (Hsp90)2 all at 0.5 μM with Hsp40 and excess ATP; then an equimolar ratio of FKBP52 added to the formed complex"}, "[4]": {"molecular_target": "client-transfer complex (Hsp90)2(Hop)1(Hsp70)2(GR)1 (human, UniProt P07900 1-732; P31948 1-543; P0DMV8 1-641; P04150 521-777, F602S)", "experiment": "native MS; (Hsp70)2, GR, Hop and (Hsp90)2 all at 0.5 μM with Hsp40 and excess ATP; then an equimolar ratio of FKBP52 added to the formed complex"}, "Hsp90 [5]": {"molecular_target": "T1, Hsp90", "experiment": "native MS; as a12 (Hsp90/Hsp70/Hop/GR/Hsp40/p23/FKBP51), then challenged with excess FKBP52"}, "Hsp90 [6]": {"molecular_target": "T1, Hsp90", "experiment": "native MS; Hsp90_(2) 3 μM with FKBP51 and FKBP52 in twofold molar excess (6 μM), the highest concentrations studied"}, "Hsp90 [7]": {"molecular_target": "T1, Hsp90", "experiment": "native MS; Hsp90_(2) 1 μM with 2 μM of both FKBP51 and FKBP52"}, "Hsp90 [8]": {"molecular_target": "T1, Hsp90", "experiment": "native MS; competition: Hsp90_(2) with Hop, FKBP51 and FKBP52, all at equimolar concentration (3 μM)"}}, "data": [{"binder": "p23 (natural protein, human, UniProt Q15185 1-160, looked up, p23 co-chaperone, human; source: provided by Sophie Jackson and David Agard's labs; expressed and purified as previously described [33]) MQPASAKWYDRRDYVFIEFCVEDSKDVNVNFEKSKLTFSCLGGSDNFKHLNEIDLFHCIDPNDSKHKRTDRSILCCLRKGESGQSWPRLTKERAKLNWLSVDFNNWKDWEDDSDEDMSNFDRFSEMMNNMGGDEDVDLPEVDGADDDSQDSDDEKMPDLE", "values": [{"measurement": "stoichiometry N", "setting": "Hsp90 [1]", "value": 2, "unit": "per Hsp90 dimer"}, {"measurement": "stoichiometry N", "setting": "Hsp90 [2]", "value": 1, "unit": "per Hsp90 dimer"}]}, {"binder": "glucocorticoid receptor ligand-binding domain (residues 521-777, F602S) (domain or fragment, human, UniProt P04150 521-777, looked up, Used without ligand; also called GR; source: provided by Sophie Jackson and David Agard's labs; expressed and purified as previously described [33]) VPATLPQLTPTLVSLLEVIEPEVLYAGYDSSVPDSTWRIMTTLNMLGGRQVIAAVKWAKAIPGFRNLHLDDQMTLLQYSWMSLMAFALGWRSYRQSSANLLCFAPDLIINEQRMTLPCMYDQCKHMLYVSSELHRLQVSYEEYLCMKTLLLLSSVPKDGLKSQELFDEIRMTYIKELGKAIVKREGNSSQNWQRFYQLTKLLDSMHEVVENLLNYCFQTFLDKTMSIEFPEMLAEIITNQIPKYSNGNIKKLLFHQK", "values": [{"measurement": "stoichiometry N", "setting": "Hsp90 [3]", "value": 1, "unit": "per Hsp90 dimer"}]}, {"binder": "FKBP52 (natural protein, human, UniProt Q02790 1-459, looked up, FKBP52, human immunophilin; The cited PDB entries hold overlapping segments of FKBP52, not the construct used here; source: provided by Sophie Jackson and David Agard's labs; expressed and purified as previously described [33]) MTAEEMKATESGAQSAPLPMEGVDISPKQDEGVLKVIKREGTGTEMPMIGDRVFVHYTGWLLDGTKFDSSLDRKDKFSFDLGKGEVIKAWDIAIATMKVGEVCHITCKPEYAYGSAGSPPKIPPNATLVFEVELFEFKGEDLTEEEDGGIIRRIQTRGEGYAKPNEGAIVEVALEGYYKDKLFDQRELRFEIGEGENLDLPYGLERAIQRMEKGEHSIVYLKPSYAFGSVGKEKFQIPPNAELKYELHLKSFEKAKESWEMNSEEKLEQSTIVKERGTVYFKEGKYKQALLQYKKIVSWLEYESSFSNEEAQKAQALRLASHLNLAMCHLKLQAFSAAIESCNKALELDSNNEKGLFRRGEAHLAVNDFELARADFQKVLQLYPNNKAAKTQLAVCQQRIRRQLAREKKLYANMFERLAEEENKAKAEASSGDHPTDTEMKEEQKSNTAGSQSQVETEA", "values": [{"measurement": "stoichiometry N", "setting": "[4]", "value": "1 per client-transfer complex"}, {"measurement": "stoichiometry N", "setting": "Hsp90 [5]", "value": 1, "unit": "per Hsp90 monomer"}, {"measurement": "stoichiometry N", "setting": "Hsp90 [6]", "value": "≤ 2", "unit": "per Hsp90 monomer"}, {"measurement": "stoichiometry N", "setting": "Hsp90 [7]", "value": "≤ 2", "unit": "per Hsp90 dimer"}, {"measurement": "stoichiometry N", "setting": "Hsp90 [8]", "value": 1, "unit": "per Hsp90 dimer"}]}]}
